Results taken from the nanobody polyreactivity screen of Harvey et al. (2022).

Assay: yeast display, Sf9 membrane polyspecificity reagent, FACS + sequencing; frameworks hold sequencing errors
How it was run: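 Nanobodies came from a synthetic yeast display library in Saccharomyces cerevisiae BJ5465, induced with galactose for 36–48 hours and stained for 1 hour at 4 °C with 10% biotinylated, detergent-solubilized Sf9 membrane reagent. Cells were enriched on streptavidin microbeads and then FACS-sorted, with low and high (top ~1%) gates set on anti-HA fluorescence for expression and streptavidin fluorescence for reagent binding. Each polyreactivity label reflects the gate a clone came from. Genes were amplified by colony PCR, sequenced by MiSeq 2 × 250 and filtered by CDR length.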

Row | Sequence | polyreactivity (PSR sort gate)
1 | QVQLVDSGGGLVQAGGSLRLSCAASGFTFTPNAMGWYRQAPGTERELVAAISRRGGSTYYADSVKGRFTISRDNAKNTVYLQMNSLKPEDTAVYYCAASSSGRGGYWGQGTQVTVSS | high polyreactivity
2 | QVQLVDSGGGLVQAGGSLRLSCAASGFTIPYYAMGWYRQAPGKERELVAAISSGGRTNYADSVKGRFTISRDNAKNTVYLPMNSLKPEDTAVYYCATRSYVFAWEFYYWGQGTQVTVSS | high polyreactivity
3 | QVQLVDSGGGLVQAGGSLRLSCAASGGILKCYYMGRYRQATGKEMEFVSPITWSAGSTYYADSVKGRFTISRDNAKNTVYLQMNSLKPEDTAVHYCNVDWYPRGPHTVVFYDVSPYDYWGQGTQVTVSS | high polyreactivity
4 | QVQLVDSGGGLVQAGGSLRLSCAASGIILYPYAMGWYRQAPGKERELVAAISWSGGSTYYADSVKGRFTISRDNAKNTVYLQMNSLKPEDTAVYYCAARPRRRYYGYDSWGQGTQVTVSS | high polyreactivity
5 | QVQLVDSGGGLVQAGGSLRLSCAASGITFNSYVMGLYRQAPGKERELVAVISRGGGITYYADSVKGRFTISRDNAKNTVYLQMNSLKPEDTAVSYCAADHTHGYVLYYNDNYWGQGTQVTVSS | high polyreactivity
6 | QVQLVDSGGGLVQAGGSLRLSCAASGITFRTYAMGWYRQEPGKERELVAAISGSSTSTYYADSVKGRFTISRDNAKNTVYLQMNSLKPEDTAVYYCAAGYRVSVYRYYYWGQGTQVTVSS | high polyreactivity
7 | QVQLVDSGGGLVQAGGSLRLSCAASGITFYYYAMGRYIQAPGKERELVAAISWSGGSTYYADSVKGRFTISRDNAKNTVYLPMNSLIPEDTAVYYCAATPYQYHDGGYWGQGTQVTVSS | high polyreactivity
8 | QVQLVDSGGGLVQAGGSLRLSCAASGITFYYYAMGWYRQAAGKERELVAAISSRGGSTYYADSVKGRFTISRDNAKNTVYLQRNSLKPEDTAVYYCAALYGVSEEDDYWGQATQVTVSS | high polyreactivity
9 | QVQLVDSGGGLVQAGGSLRLSCAASGITFYYYAMGWYRQAPGKERELVAAISSRGGSTYYADSVKGRFRISRDNAKNTVYLQMNSLNPEDTAVYYCAAGRVGAWTFDYWGEGTQVTVSS | high polyreactivity
10 | QVQLVDSGGGLVQAGGSLRLSCAASGITIEYNDMGWYRQAPGTERELVAAISLSSGSTYYADSVKGRFTISRDNAKNTVYLQMNSLKPEDTAVYYCNADTIIYEGGYWGQGTQVTVSS | low polyreactivity
11 | QVQLVDSGGGLVQAGGSLRLSCAASGITIVYYAMGWNRQAPGKERELVAAITRGANTYYADSVKGRFTISRDNAKNTVYLQMNSLKPEDTAVYYCAADGWVGAWWYVLDVRYDYWGQGTQVTVSS | low polyreactivity
12 | QVQLVDSGGGLVQAGGSLRLSCAASGLIFDVYAMGWYRQAPGKERELVAVISSDGGTYYADSVKGLFTISRDNAKNTVYLQMISLKPEYTAVYYCAARRWREGARYSYWGQGTQVTVSS | high polyreactivity
13 | QVQLVDSGGGLVQAGGSLRLSCAASGLNFVINAMGWYRQAPGKERELDATISSGVSTNYADSVKGRFTISRDNAKNTVYLQMNSLKPEDTAVYDCNKGQTVSRGYRLYERYDYWGQGTQVTVSS | low polyreactivity
14 | QVQLVDSGGGLVQAGGSLRLSCAASGLTFTRYAMGWYRQAPGKERELVAAISKNGGSTYYADSVKGRFTISRDNAKNTVYLQMNSLKPAETAVYYCAARRYGPGRYPEDYWGQGTQVTVSS | high polyreactivity
15 | QVQLVDSGGGLVQAGGSLRLSCAASGLTIPVYTMVWYRHAPGTEREFVAAITYNGGRTYYADCVKGRFTISRDNAKNTVYLQMNSLKPEDTAVYYCAAEYGTYFVRYYAGASYRYGYWGQGTQVTVSS | low polyreactivity
16 | QVQLVDSGGGLVQAGGSLRLSCAASGNTFSGNTMGWYRQAPGKERELVAAIRFTGGSTTYADSVKGRFTISRDNAKNTVYLQMNSLKPEDTAVYYCNTDWVSFRSIYHEYDYWGQGTQVTVSS | low polyreactivity
17 | QVQLVDSGGGLVQAGGSLRLSCAASGRIFFPNGMGWYRQAPGKERELVATISRIGGSTYYADSVKGRFTISRDNAMNTVYLQRNSLKPEDTAVYYCAAQYSYGVYWTLPYGYNYWGQGTQVTVSS | low polyreactivity
18 | QVQLVDSGGGLVQAGGSLRLSCAASGRIFGSYVMGWYRQAPGKERELVAAITDGGTTYADSVKGRFTISRDNAKNTVYLQMNSLKPEDTAVYYCAADLYDWPLAWWEYYYWGQGTHVTVSS | low polyreactivity
19 | QVQLVDSGGGLVQAGGSLRLSCAASGRIFPGKVMGWYRQAPGKERELVAAISSSGGSTYYADSVKGRFTISRDNAKNTVYLQMNSLKPEDTAVYYCAADSSDWPYDYWGQGTQVTVSS | low polyreactivity
20 | QVQLVDSGGGLVQAGGSLRLSCAASGRIFQPNAMGWYRQAPGKEMEFVAAISSSGGSTFYADSVKGRFTISRDNAKNTVYLQMNSLKPEDTAVYYCAKRYGYTEYYYWGQGTQVTVSS | high polyreactivity
21 | QVQLVDSGGGLVQAGGSLRLSCAASGRIFRGYAMGWYRQAPGKERELVAAINRGSSTYYADSVKGRFTISRDNAKNTVYLQMNSLKPEDTAVYYCAVKGYLPYTGIFDYWGQGTQVTVSS | high polyreactivity
22 | QVQLVDSGGGLVQAGGSLRLSCAASGRIFRLYAMGWYRPAPGKERELVATITRSGVSTYYADSVKGRFTISRDNAKNTVYLQMNSLKPEDTAVYYCAVDRWGRYYATQYTFDYWGQGTQVTVSS | high polyreactivity

Row | Sequence | polyreactivity (PSR sort gate)
23 | QVQLVDSGGGLVQAGGSLRLSCAASGRIFSVYAMGWYRQAPGNERELVAAITRVGSTNYADSVKGRFTISRDNAKNTVYLQMNSLKPEDTAVYYCAASKYGSLSGYWGQGTQVTVSS | high polyreactivity
24 | QVQLVDSGGGLVQAGGSLRLSCAASGRISNYYAMGWYRQAPGKERELVAAITRSGGSTYYADSVKGRFTISRDNAKNTVYLQMNSLKPEDTAVYYCATDWTVRYDYWGQGTQVTVSS | high polyreactivity
25 | QVQLVDSGGGLVQAGGSLRLSCAASGRLFDRNAMGWYRQGPGKERELVARIDPGDDTNYSYSVTGRFTISRDNAKNTVYLQMNSLKPEDTAVYYCATDPDYVLYRTAYYEYDYWGKGTQVTVSS | low polyreactivity
26 | QVQLVDSGGGLVQAGGSLRLSCAASGRTFATYAMGWNRQAPGKERELVAAISSGGSTYYADSVKGRFTISRDNAKNNVYLQMNRLKPDDTAVYYCAAEVWFPDRWMDYWGQGTQVTVSS | high polyreactivity
27 | QVQLVDSGGGLVQAGGSLRLSCAASGRTFGAYDMGWYRQAPGKERELVAAISSGATTNYADSVKGRFTISRDNAKNTVYLQMNSLKPEDTAVYYCAASVYRYIYAFNYWGQGTQVTVSS | low polyreactivity
28 | QVQLVDSGGGLVQAGGSLRLSCAASGRTFGVNAMGWYRQAPGKERELVAAISSGSSTYYADSVKGRFTISRDNAKNTVYLQMNSLKPEDTAVYYCAAKYWSYYQSRSLSYRYFYWGQGTQVTVSS | low polyreactivity
29 | QVQLVDSGGGLVQAGGSLRLSCAASGRTFRHNAMGWYRQAPGKERELVATISNRGGTSYYADSVKGRFTISRDNANNTVYLQMNSLKPEDTAVYYCAARVGVLGYVRYGYWGHGTQVTVSS | low polyreactivity
30 | QVQLVDSGGGLVQAGGSLRLSCAASGRTFSSYAMGSYRQAPGKERELVAAINWSGASTYYADSVKGRFTISRDYAKNTVYLQLNSLKPEDTAVYDCAKSLYVGKFWQIRSSVDYWGQGTQVTVSS | low polyreactivity
31 | QVQLVDSGGGLVQAGGSLRLSCAASGRTFTIYAIGWYRQAPGKEREFVASITGSDGSTYYADSVKGRFTISRDNAKNTVYLQMNSLKPEDTAVYYCAAATSSAYDYWGQGTQVTVSS | low polyreactivity
32 | QVQLVDSGGGLVQAGGSLRLSCAASGRTFYAYAMGWYRQAPGKERELVATISSSDASTYYADSVKGRFTISRDNAKKTVYLLMNSLKPEDTAVYYGNADFVRPSWARGRNNGLYYWGQGTQVTVSS | low polyreactivity
33 | QVQLVDSGGGLVQAGGSLRLSCAASGRTFYWYTMGWYRQAPGKERELVAAISTRGVRTYYADSVKGRFTISRDNAKNTVYLQMNSLKPADTAVYYCNDEYNPTYYTSHDDSDYWGQGTLVTVSS | low polyreactivity
34 | QVQLVDSGGGLVQAGGSLRLSCAASGRTSIWNAMGWYRQAPGKERELVASISWSGGSTYYADSVKGRFTISRDNAKNTVYLQMNSLKPEDTAVYYCAKTGYFLVFNEHLHKKRYDSWGQGTQVTVSS | low polyreactivity
35 | QVQLVDSGGGLVQAGGSLRLSCAASGRTSYENAMGWYREAPGKERELVAAINVSGGSTYYADSVKGRFTISRDNAKNTVYLQMNSLKPEDTAVYYCAADNPYADARSSWYEYNDWGQGTQVTVSS | high polyreactivity
36 | QVQLVDSGGGLVQAGGSLRLSCAASGRTYDTNAMGWNRQAPRKETELVAVITARGGNTSYADSVKGRFTISRDNAKNTVYLQMNSLKPEDTAVYYCAALYFKVGYYTYEYWGQGTQVTVSS | low polyreactivity
37 | QVQLVDSGGGLVQAGGSLRLSCAASGRTYTYYAMGWYRQAPGKERELVAAISKSGGSTYYADSVKGRFTISRDNAKNTVYLQMNSLKPEDTAVYYFAKVYRYSSLYYYWGQGTQVTVSS | low polyreactivity
38 | QVQLVDSGGGLVQAGGSLRLSCAASGSIFDFYAMGWYRQAPGTERELVAAINSGGSTNYADSVKGRFTISRDNAKNTVYLQMNSLTPEDTAVYYCAARHPPYRGGYWGQGTQVTVSS | low polyreactivity
39 | QVQLVDSGGGLVQAGGSLRLSCAASGSIFEINAMGWYRQAPGKERELVAVITDSGSTYYEDSVKGRFTISRDNAKNTVDLQMNSLKPEDTAVYYCAAEYSLLFFLMDYWGQGTQVTVSS | low polyreactivity
40 | QVQLVDSGGGLVQAGGSLRLSCAASGSIFGQYTMGWYRQAPGKERELVAAINSSGDSTFYADSVKGRFTISRDNAKNTVYLQMNSLKPEDTAVYFCAADPYRYYFRAYGWHREGYYWGQGTQVTVSS | low polyreactivity
41 | QVQLVDSGGGLVQAGGSLRLSCAASGSIFPPYAMGWYRQAPGKERELVAAITRSGGSTYYADSVKGRFTISRDNAKNTVYLQMNSLKPEDTAVYYCAARYPGGYGYWGQGTQVTVSS | high polyreactivity
42 | QVQLVDSGGGLVQAGGSLRLSCAASGSIFRYNDMGWYRQAPGKERELVATITSGTNTYYADSVKGRFTISRDNEKNTVYLQMNSLKPEDTAVYYCAAGYPSWYYGYPYDSWGQGTQVTVSS | low polyreactivity
43 | QVQLVDSGGGLVQAGGSLRLSCAASGSIFRYYAMGWYRQAPGKEREFVAAINTNDAGTYYADSVKGRFTISRDNAKNTVYLQMNSLKPEDTAVYYCAADTGYPFWYDYWGQGTQVTVSS | high polyreactivity
